3 compounds from US20130203655A1, “METHODS FOR PREVENTING OR TREATING VIRAL INFECTION” (priority 2010, published 2013) can be followed below.

In experiment [1] the target is DENV2 E DI/II H244A protein (Dengue virus 2 New Guinea C (NGC) strain). Kind of experiment: cell-based or functional assay.
Experiment [2] concerns the target DENV2 E′ protein (dimeric E ectodomain, E residues 1-395, ST tag) (Dengue virus 2 New Guinea C (NGC) strain). In words: cell-based or functional assay.
For experiment [3], the target named is DENV2 E DI/II protein (monomeric, E residues 1-291, STST tag), wild type (Dengue virus 2 New Guinea C (NGC) strain). In words: cell-based or functional assay.
The test system of another experiment is DENV1 H244A prM-E VLP. As to conditions: 20 mM NH4Cl, total 36 h, vs untreated cells. As for the experimental part: (§1) Expression of prM-E and VLP production. WT and E H244A mutant DENV1 prM-E sequences were PCR-amplified from the pGDENV1 3.3 subclones described above, and cloned into pcDNA4/TO (Invitrogen, Life Technologies, Carlsbad, Calif.). These constructs were transfected into T-REx™-293 cells (Invitrogen, Life Technologies, Carlsbad, Calif.) using Lipofectamine™ 2000 (Invitrogen, Life Technologies, Carlsbad, Calif.) and selected in T-REx HEK medium containing 125 μg/ml Zeocin, all as previous described.
(§2) For VLP secretion studies, 2-3×10^6 cells were seeded in 10 cm plates, cultured for 24 h, and then induced by culture for 36 h in 1.5 μg/ml tetracycline in DME medium with 10% FCS at 37° C. The culture media were centrifuged at 10,000×g for 30 min to remove cell debris. VLPs were then pelleted through a 0.5 ml sucrose cushion by centrifugation at 54,000 rpm for 2 h at 4° C. using a TLS55 rotor. To test the effect of neutralizing the pH of acidic cellular compartments, cells were seeded and induced as above. After 2 h of induction the media were changed to DME medium containing 20 mM HEPES pH 8.0, 2% FCS, and 1.5 μg/ml tetracycline plus 20 mM NH4Cl as indicated, and the incubation continued for a total of 36 h. E proteins in the cell lysates were immunoprecipitated using mAb 4G2.

For the next experiment, the system named is DENV1 WT prM-E VLP. The conditions noted are these: 20 mM NH4Cl-treated vs untreated cells. As for the experimental part: as §1, §2

As for “recombinant DENV2 pr peptide (prM residues 1-86 with N-terminal GS and C-terminal tandem Strep tag)”, in experiment [1], the efficiency of floatation of H244A DI/II with liposomes, in the absence of pr stood at 43% and the efficiency of floatation of H244A DI/II with liposomes, in the presence of pr was determined as 47%. Moreover, in experiment [2], the E′ co-floatation with liposomes at pH 5.75, pr:E′ molar ratio 12:1 (about 70% with a control protein) stood at 2%; the E′ co-floatation with liposomes, pr:E′ molar ratio 3:1 came to 22%; the E′ co-floatation with liposomes, pr:E′ molar ratio 6:1 came out at 8%; the E′ co-floatation with liposomes, pr:E′ molar ratio 24:1 was determined as 0.4%.

With “DENV2 NGC DIII protein (LDIIIH1CS, E residues 289-430)”, the DI/II co-floatation with liposomes at low pH in the presence of DIII (none with BSA in place of DIII) in experiment [3] turned out to be 25%.

Take `Cl.N` [NH4Cl]: the “increase in production of VLP containing H244A mutant E protein” value in the experiment on DENV1 H244A prM-E VLP is on record as 4-7 fold. Also, the “WT VLP production” value with DENV1 WT prM-E VLP was “similar”.
